According to patent US20080280832A1 (LABORATOIRES SERONO, published 2008):

Molecular target: T1, human FSH receptor (human, UniProt P23945 18-695)
T1 sequence (looked up): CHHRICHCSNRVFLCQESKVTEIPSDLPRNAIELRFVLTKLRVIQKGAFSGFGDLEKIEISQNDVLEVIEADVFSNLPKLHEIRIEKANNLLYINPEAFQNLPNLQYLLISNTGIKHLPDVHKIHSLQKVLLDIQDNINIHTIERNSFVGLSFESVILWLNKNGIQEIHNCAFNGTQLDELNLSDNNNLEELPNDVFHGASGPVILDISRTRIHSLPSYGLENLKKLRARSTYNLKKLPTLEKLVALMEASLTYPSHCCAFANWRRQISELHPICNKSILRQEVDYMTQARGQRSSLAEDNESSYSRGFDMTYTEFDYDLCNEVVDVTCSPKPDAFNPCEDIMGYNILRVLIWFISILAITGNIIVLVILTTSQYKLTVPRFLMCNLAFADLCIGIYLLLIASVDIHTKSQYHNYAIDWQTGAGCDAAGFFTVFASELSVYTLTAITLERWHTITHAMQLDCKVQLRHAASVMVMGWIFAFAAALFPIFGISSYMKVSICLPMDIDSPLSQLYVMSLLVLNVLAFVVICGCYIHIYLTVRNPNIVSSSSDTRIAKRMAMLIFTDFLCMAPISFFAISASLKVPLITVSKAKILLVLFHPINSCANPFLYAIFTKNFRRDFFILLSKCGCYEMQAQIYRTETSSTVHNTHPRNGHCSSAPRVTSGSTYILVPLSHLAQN
Assay: cell-based or functional assay

B1: Clone 15C- α D3N/β GM1 (ligand)
chain 1: not shown
chain 2: NSCELTNITIAIEKEECRFCISINTTWCAGYCYTRDLVYKDPARPKIQKTCTFKNLTYETVRVPGCAHHADSLYTYPVATQCHCGKCDSDSTDCTVRGLGPSYCSFGEMKE
- EC50 M (cAMP production in CHO-FSHR cells): 0.414 nM
